Measurements from US20190367589A1 (CYTOMX THERAPEUTICS, published 2019).
Each block holds one binder with its values, some of them ahead of it.

B4: masking moiety JS5872 (peptide)
peptide: GCNIWLNGGDCRGWVDPLQG
B5: masking moiety JS5342 (peptide)
peptide: CNIWLVGGDCRGWQG
B11: masking moiety JS5877 (peptide)
peptide: GCNIWLVGGDCRGWIGDTNG
B12: masking moiety JS5885 (peptide)
peptide: GCNIWLVGGDCRGWIEDSNG
B14: 4D11 Fab (Fab, V domains shown)
VH: EVQLLESGGGLVQPGGSLRLSCAASGFTFSSYAMSWVRQAPGKGLEWVSSIDPEGRQTYYADSVKGRFTISRDNSKNTLYLQMNSLRAEDTAVYYCAKDIGGRSAFDYWGQGTLVTVSS
VL: DIQMTQSPSSLSASVGDRVTITCRASQSISSYLNWYQQKPGKAPKLLIYAASSLQSGVPSRFSGSGSGTDFTLTISSLQPEDFATYYCQQTVVAPPLFGQGTKVEIKR
notes: C-terminally His-tagged Fab from the periplasm of E. coli; also called anti-Jagged Fab 4D11; Fab 4D11
B20: masking moiety JS5887 (peptide)
peptide: GCNIWANGGDCRGWIDNIDG

What was measured:
4D11 Fab [1] = target: B14; assay: FACS of bacteria displaying the peptide
[2] = target: T1, anti-Jagged antibody 4D11 (fully human IgG); assay: FACS of bacteria displaying the peptide
T1 construct: Human IgG1 kappa from HEK-293 cells; Labeled with Alexa Fluor 680 in the tissue stainings, biotinylated in the peptide screens; also called anti-Jagged 4D11; 4D11 antibody

4D11 Fab [3] = target: B14; assay: FACS of bacteria displaying the peptide, labeled Fab 4D11, normalized to expression
[4] = target: T2, human Jagged 1-Fc (extracellular domain of human Jagged 1 fused to the Fc portion of human IgG1); R&D Systems … (human, UniProt P78504 34-1067); assay: ELISA, ligand-Fc coated, anti-human IgG Fab-specific HRP
T2 construct: extracellular domain; Bought reagent; also called hJag1; h Jagged 1; not shown: Fc portion of human IgG1
Experimental: Bound antibody was visualized with an anti-human IgG-HRP conjugate, Fab specific, (Sigma, St Louis, Mo.; Cat # A0293-1ML) and developed with the chromogenic substrate TMB.

[5] = target: T2, human Jagged 1-Fc (extracellular domain …); assay: BLI (Octet), Jagged-Fc on anti-human Fc tips, Fab in solution
Experimental: (§1) Off rates for individual Fabs were measured using an Octet (ForteBio, Menlo Park, Calif.). […] Following a wash, the loaded tips were exposed to 25 μM Fab until binding had reached equilibrium. The tips were then removed to a fresh solution with no Fab, and the rate of Fab dissociation was measured.

[6] = target: T3, human Jagged 2-Fc (R&D Systems Cat #1726-JG-050) (human, UniProt Q9Y219 27-1080, limits assumed); assay: as above
T3 construct: Bought reagent; also called hJag2; h Jagged 2; not shown: Fc part
Experimental: as §1

[7] = target: T4, murine Jagged 2-Fc (R&D Systems) (murine, UniProt Q9QYE5 24-1082, limits assumed); assay: as above
T4 construct: Bought reagent, cited as ibid. although no catalogue number is printed anywhere; also called m Jagged 2; not shown: Fc part
Experimental: as §1

[8] = target: T3, human Jagged 2-Fc (R&D Systems Cat …); assay: drawn table 'Kd (nM)' of Fab; method not stated; the legend names the matured antibody as 4D11
masking moiety JS5872 = target: B4; assay: FACS of cells displaying the masking peptide, labelled Fab 4D11, signal normalised to expression; Fab concentration not given
masking moiety JS5877 = target: B11; assay: as above
masking moiety JS5885 = target: B12; assay: as above
masking moiety JS5887 = target: B20; assay: as above
JS5340 = target: T5, JS5340; assay: FACS of cells displaying the peptide, biotinylated anti-Jagged Fab at 1, 10 and 100 nM, streptavidin-PE, normalised to expression with yPet-MONA
T5 construct: also called masking moiety JS5340
T5 peptide displayed on cells: CNLWLHGGDCRGWQG

JS5347 = target: T6, JS5347; assay: as above
T6 construct: also called masking moiety JS5347
T6 peptide displayed on cells: CNIWGPSVDCGALLG

JS5358 = target: T7, JS5358; assay: as above
T7 construct: also called masking moiety JS5358
T7 peptide displayed on cells: CNIWVNGGDCRSFEG

masking moiety JS5342 = target: B5; assay: as above

T3 sequence (Q9Y219 27-1080 limits assumed): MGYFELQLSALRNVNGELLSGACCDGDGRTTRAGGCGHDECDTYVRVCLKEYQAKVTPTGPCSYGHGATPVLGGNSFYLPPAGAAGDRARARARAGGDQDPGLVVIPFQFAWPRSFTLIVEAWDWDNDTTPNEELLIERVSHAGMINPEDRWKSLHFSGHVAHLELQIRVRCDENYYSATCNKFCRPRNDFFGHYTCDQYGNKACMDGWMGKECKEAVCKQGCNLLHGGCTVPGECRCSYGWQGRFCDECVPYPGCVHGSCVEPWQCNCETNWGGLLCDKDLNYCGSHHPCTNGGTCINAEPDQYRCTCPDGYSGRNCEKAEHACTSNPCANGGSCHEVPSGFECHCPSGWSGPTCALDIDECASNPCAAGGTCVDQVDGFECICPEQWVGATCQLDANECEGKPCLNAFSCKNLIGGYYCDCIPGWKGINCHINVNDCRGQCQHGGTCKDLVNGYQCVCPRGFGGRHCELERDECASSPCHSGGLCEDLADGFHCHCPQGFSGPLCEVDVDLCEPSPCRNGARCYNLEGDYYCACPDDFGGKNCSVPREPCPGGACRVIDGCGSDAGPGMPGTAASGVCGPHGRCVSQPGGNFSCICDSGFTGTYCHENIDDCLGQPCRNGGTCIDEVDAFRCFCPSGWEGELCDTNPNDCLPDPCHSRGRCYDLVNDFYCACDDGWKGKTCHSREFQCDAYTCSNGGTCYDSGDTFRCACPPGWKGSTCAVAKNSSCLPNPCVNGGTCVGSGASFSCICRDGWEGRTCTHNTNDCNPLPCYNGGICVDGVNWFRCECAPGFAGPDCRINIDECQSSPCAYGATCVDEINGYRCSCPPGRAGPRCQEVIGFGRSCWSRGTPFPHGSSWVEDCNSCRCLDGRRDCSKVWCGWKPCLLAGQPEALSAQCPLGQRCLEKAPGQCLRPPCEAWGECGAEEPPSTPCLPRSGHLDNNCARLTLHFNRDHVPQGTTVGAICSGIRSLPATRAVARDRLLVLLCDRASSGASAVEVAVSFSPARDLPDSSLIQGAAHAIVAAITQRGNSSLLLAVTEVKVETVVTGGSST
T4 sequence (Q9QYE5 24-1082 limits assumed): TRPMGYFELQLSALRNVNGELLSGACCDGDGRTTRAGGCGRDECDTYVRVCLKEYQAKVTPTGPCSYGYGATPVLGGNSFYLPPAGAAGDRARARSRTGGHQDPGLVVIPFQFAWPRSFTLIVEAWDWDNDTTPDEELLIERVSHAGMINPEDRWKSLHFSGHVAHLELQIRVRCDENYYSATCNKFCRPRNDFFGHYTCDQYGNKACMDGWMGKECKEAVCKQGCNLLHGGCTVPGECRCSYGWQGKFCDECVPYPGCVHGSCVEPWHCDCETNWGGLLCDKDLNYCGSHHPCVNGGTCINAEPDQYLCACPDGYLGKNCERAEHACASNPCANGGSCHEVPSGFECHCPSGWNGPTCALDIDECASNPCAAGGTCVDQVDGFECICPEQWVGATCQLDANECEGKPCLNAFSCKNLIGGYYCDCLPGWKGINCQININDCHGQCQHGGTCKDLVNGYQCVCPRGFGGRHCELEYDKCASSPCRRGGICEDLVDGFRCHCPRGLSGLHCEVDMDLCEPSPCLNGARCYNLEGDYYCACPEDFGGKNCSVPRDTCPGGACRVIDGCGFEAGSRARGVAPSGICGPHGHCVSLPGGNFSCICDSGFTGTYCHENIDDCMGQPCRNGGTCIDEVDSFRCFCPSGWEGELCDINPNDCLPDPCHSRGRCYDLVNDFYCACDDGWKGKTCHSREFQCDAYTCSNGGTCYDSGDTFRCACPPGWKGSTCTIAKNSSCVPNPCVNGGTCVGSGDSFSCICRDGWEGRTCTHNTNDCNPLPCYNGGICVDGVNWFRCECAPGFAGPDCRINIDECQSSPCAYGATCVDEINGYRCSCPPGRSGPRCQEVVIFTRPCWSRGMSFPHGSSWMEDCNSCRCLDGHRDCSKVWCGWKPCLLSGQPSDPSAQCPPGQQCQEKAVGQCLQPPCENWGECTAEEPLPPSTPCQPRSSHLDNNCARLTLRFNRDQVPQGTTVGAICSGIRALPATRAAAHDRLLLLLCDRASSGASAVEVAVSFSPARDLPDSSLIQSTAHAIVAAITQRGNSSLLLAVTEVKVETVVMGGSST

binding result (4D11 Fab [1]): binds | binding result [2]: binds
B1: masking moiety JS4896 (peptide)
peptide: CNLWVSGGDCGGLQG

binding result (4D11 Fab [1]): binds | binding result [2]: binds
B2: masking moiety JS4897 (peptide)
peptide: SCSLWTSGSCLPHSP

affinity (ELISA) [4]: > 30 nM
B6: anti-Jagged 32 IgG (antibody, V domains shown)
VH: EVQLLESGGGLVQPGGSLRLSCAASGFTFSSYAMSWVRQAPGKGLEWVSSIEQMGWQTYYADSVKGRFTISRDNSKNTLYLQMNSLRAEDTAVYYCAKSAAAFDYWGQGTLVTVSS
VL: DIQMTQSPSSLSASVGDRVTITCRASQSISSYLNWYQQKPGKAPKLLIYAASLQSGVPSRFSGSGSGTDFTLTISSLQPEDFATYYCQQTVVAPLTFGQGTKVEIKR
notes: Fully human IgG made from the variable domains of ScFv Jagged 32; also called anti-Jag 32; antibody 32/32

koff [5]: 0.027 s⁻¹
B7: anti-Jagged 32 Fab (Fab, V domains shown)
VH: EVQLLESGGGLVQPGGSLRLSCAASGFTFSSYAMSWVRQAPGKGLEWVSSIEQMGWQTYYADSVKGRFTISRDNSKNTLYLQMNSLRAEDTAVYYCAKSAAAFDYWGQGTLVTVSS
VL: DIQMTQSPSSLSASVGDRVTITCRASQSISSYLNWYQQKPGKAPKLLIYAASLQSGVPSRFSGSGSGTDFTLTISSLQPEDFATYYCQQTVVAPLTFGQGTKVEIKR
notes: Fab expressed in E. coli; also called Jag32

koff [5]: 0.022 s⁻¹ | koff [6]: 0.001 s⁻¹ | koff [7]: 0.0028 s⁻¹
B8: anti-Jagged 13 Fab (Fab, V domains shown)
VH: EVQLLESGGGLVQPGGSLRLSCAASGFTFSSYAMSWVRQAPGKGLEWVSSIETQGPTTLYADSVKGRFTISRDNSKNTLYLQMNSLRAEDTAVYYCAKTSSAFDYWGQGTLVTVSS
VL: DIQMTQSPSSLSASVGDRVTITCRASQSISSYLNWYQQKPGKAPKLLIYASSLQSGVPSRFSGSGSGTDFTLTIGSLQPEDFATYYCQQNVATPLTFGQGTKVEIKR
notes: Fab expressed in E. coli; also called Jag13

binding result (4D11 Fab [1]): binds | binding result [2]: binds
B9: masking moiety JS4874 (peptide)
peptide: PWCMQRQDFLRCPQP

binding result (4D11 Fab [1]): binds | binding result [2]: binds
B10: masking moiety JS4899 (peptide)
peptide: YCLQLPHYMQAMCGR

koff [5]: 0.00035 s⁻¹
B19: 6B7 Fab (Fab, V domains shown)
VH: EVQLLESGGGLVQPGGSLRLSCAASGFTFSSYAMSWVRQAPGKGLEWVSSIDEMGWQTYYADSVKGRFTISRDNSKNTLYLQMNSLRAEDTAVYYCAKSAAAFDYWGQGTLVTVSS
VL: DIQMTQSPSSLSASVGDRVTITCRASQSISSYLNWYQQKPGKAPKLLIYAASSLQSGVPSRFSGSGSGTDFTLTISSLQPEDFATYYCQQALVAPLTFGQGTKVEIKR
notes: C-terminally His-tagged Fab from the periplasm of E. coli

More lines, now with the values behind:

B3: masking moiety JS4879 (peptide)
peptide: QLGLPAYMCTFECLR
binding result (4D11 Fab [1]): binds | binding result [2]: binds

Binder: B4
binding result (4D11 Fab [3]): binds

Binder: B5
binding result (4D11 Fab [3]): binds

Binder: B11
binding result (4D11 Fab [3]): binds

Binder: B12
binding result (4D11 Fab [3]): binds

B13: masking moiety JS4906 (peptide)
peptide: CFLYSCTDVSYWNNT
binding result (4D11 Fab [1]): binds | binding result [2]: binds

Binder: B14
koff [6]: 0.00045 s⁻¹ | koff [7]: 0.00042 s⁻¹ | Kd [8]: < 1 nM | binding result (masking moiety JS5872): binds | binding result (masking moiety JS5877): binds | binding result (masking moiety JS5885): binds | binding result (masking moiety JS5887): binds | binding result (JS5340): binds | binding result (JS5347): binds | binding result (JS5358): binds | binding result (masking moiety JS5342): binds

B15: 4B2 Fab (Fab, V domains shown)
VH: EVQLLESGGGLVQPGGSLRLSCAASGFTFSSYAMSWVRQAPGKGLEWVSSIEQMGWQTYYADSVKGRFTISRDNSKNTLYLQMNSLRAEDTAVYYCAKDIGGRSAFDYWGQGTLVTVSS
VL: DIQMTQSPSSLSASVGDRVTITCRASQSISSYLNWYQQKPGKAPKLLIYAASSLQSGVPSRFSGSGSGTDFTLTISSLQPEDFATYYCQQTLDAPPQFGQGTKVEIKR
notes: as for B19
koff [5]: 0.0005 s⁻¹ | koff [6]: 0.0065 s⁻¹ | koff [7]: 0.0011 s⁻¹

B16: 4E7 Fab (Fab, V domains shown)
VH: EVQLLESGGGLVQPGGSLRLSCAASGFTFSSYAMSWVRQAPGKGLEWVSSIEEMGWQTKYADSVKGRFTISRDNSKNTLYLQMNSLRAEDTAVYYCAKSAAAFDYWGQGTLVTVSS
VL: DIQMTQSPSSLSASVGDRVTITCRASQSISSYLNWYQQKPGKAPKLLIYAASSLQSGVPSRFSGSGSGTDFTLTISSLQPEDFATYYCQQSLVAPLTFGQGTKVEIKR
notes: as for B19
koff [5]: 0.00069 s⁻¹

B17: 6F8 Fab (Fab, V domains shown)
VH: EVQLLESGGGLVQPGGSLRLSCAASGFTFSSYAMSWVRQAPGKGLEWVSSIDEMGWQTYYADSVKGRFTISRDNSKNTLYLQMNSLRAEDTAVYYCAKSAAAFDYWGQGTLVTVSS
VL: DIQMTQSPSSLSASVGDRVTITCRASQSISSYLNWYQQKPGKAPKLLIYAASSLQSGVPSRFSGSGSGTDFTLTISSLQPEDFATYYCQQALVAPLTFGQGTKVEIKR
notes: C-terminally His-tagged Fab from the periplasm of E. coli; As printed its variable domains equal those of 6B7
koff [5]: 0.0012 s⁻¹

B18: 4E11 Fab (Fab, V domains shown)
VH: EVQLLESGGGLVQPGGSLRLSCAASGFTFSSYAMSWVRQAPGKGLEWVSSIEPMGQLTEYADSVKGRFTISRDNSKNTLYLQMNSLRAEDTAVYYCAKDIGGRSAFDYWGQGTLVTVSS
VL: DIQMTQSPSSLSASVGDRVTITCRASQSISSYLNWYQQKPGKAPKLLIYAASSLQSGVPSRFSGSGSGTDFTLTISSLQPEDFATYYCQQALDAPLMFGQGTKVEIKR
notes: as for B19
koff [5]: 0.0014 s⁻¹ | koff [6]: 0.00057 s⁻¹ | koff [7]: 2.5e-05 s⁻¹

Binder: B20
binding result (4D11 Fab [3]): binds
